Data on 4 substances can be found in PMC6721657.

The assay deals with full length extracellular fragment of FGFR1-IIIc fused to the Fc (UniProt P11362). Nature of the assay: BLI; FGFR1c-Fc loaded on Protein A biosensors (20 μg/mL, 600 s); FGF1 proteins 100 to 800 nM in solution; PBS, 25 °C, 1000 rpm; global fit with the 2:1 heterogeneous ligand model and steady state analysis; three independent experiments. (In general: BLI is a label-free optical method that tracks binding on a fibre tip over time.)
Sequence of UniProt P11362 (P11362 22-376): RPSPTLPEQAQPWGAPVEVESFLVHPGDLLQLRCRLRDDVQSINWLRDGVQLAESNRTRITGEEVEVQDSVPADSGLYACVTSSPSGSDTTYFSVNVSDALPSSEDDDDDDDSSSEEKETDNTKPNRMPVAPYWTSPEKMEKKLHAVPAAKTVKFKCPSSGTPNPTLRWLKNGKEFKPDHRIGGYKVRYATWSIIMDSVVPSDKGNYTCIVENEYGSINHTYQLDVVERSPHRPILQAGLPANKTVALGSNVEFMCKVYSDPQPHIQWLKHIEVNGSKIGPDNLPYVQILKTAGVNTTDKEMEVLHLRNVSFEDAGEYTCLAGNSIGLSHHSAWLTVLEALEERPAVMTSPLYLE
Substance “FGF1 R35E mutant (Ala-FGF1 21-154) (ligand)” yielded a KD1 (2:1 heterogeneous ligand model) of 291 nM and a KD2 (2:1 heterogeneous ligand model) of 152 nM.
“FGF1 R35E/Q40P/S47I/H93G mutant (Ala-FGF1 21-154) (ligand)” came in with a KD1 (2:1 heterogeneous ligand model) of 477 nM and a KD2 (2:1 heterogeneous ligand model) of 690 nM.
The matching figures for “wild-type fibroblast growth factor 1, truncated form (Ala-FGF1 21-154) (ligand)”: 46.9 nM and 75.6 nM.
“FGF1 Q40P/S47I/H93G variant (Ala-FGF1 21-154) (ligand)” registered a KD1 (2:1 heterogeneous ligand model) of 1.02e-07 and a KD2 (2:1 heterogeneous ligand model) of 1.05e-07.
